Experimental findings from patent US5750106 are described below.

The experiment addresses gH glycoprotein of CMV (82,000 dalton component) (human cytomegalovirus (CMV), strain not stated).

B1: human monoclonal antibody SDZ MSL 109 (antibody, V domains shown)
VH: EEQVLESGGGLVKPGGSLRLSCAASGFTFSPYSVFWVRQAPGKGLEWVSSINSDSTYKYYADSVKGRFTISRDNAENSIFLQMNSLRAEDTAVYYCARDRSYYAFSSGSLSDYYYGLDVWGQG
VL: DIVMTQSPLSLSVTPGEPASISCRSSQSLLHTNGYNYLDWYVQKPGQSPQLLIYLASNRASGVPDRFSGSGSGTDFTLKISRVETEDVGVYYCMQALQIPRTFGQGTKVEIKR
B1 registered a neutralizing concentration (micro-neutralization assay) of 100 ng/mL.
